# Measurements taken from patent publication US9046519 (RSR, dated 2015).
# Target: porcine TSH (RSR Ltd, 70 units per mg) (porcine, UniProt P01219 25-120; P01224 21-132)
# Assay: Scatchard, 125I-ligand, solubilised TSHR on tubes
row,binding result,Binder
1,no binding,"TSHR Arg255 to Ala, Trp258 to Ala and Tyr185 to Ala (receptor, whole, on cells; as m1) GMGCSSPPCECHQEEDFRVTCKDIQRIPSLPPSTQTLKLIETHLRTIPSHAFSNLPNISRIYVSIDVTLQQLESHSFYNLSKVTHIEIRNTRNLTYIDPDALKELPLLKFLGIFNTGLKMFPDLTKVYSTDIFFILEITDNPYMTSIPVNAFQGLCNETLTLKLANNGFTSVQGYAFNGTKLDAVYLNKNKYLTVIDKDAFGGVYSGPSLLDVSQTSVTALPSKGLEHLKELIAANTATLKKLPLSLSFLHLTRADLSYPSHCCAFKNQKKIRGILESLMCNESSMQSLRQRKSVNALNSPLHQEYEENLGDSIVGYKEKSKFQDTHNNAHYYVFFEEQEDEIIGFGQELKNPQEETLQAFDSHYDYTICGDSEDMVCTPKSDEFNPCEDIMGYKFLRIVVWFVSLLALLGNVFVLLILLTSHYKLNVPRFLMCNLAFADFCMGMYLLLIASVDLYTHSEYYNHAIDWQTGPGCNTAGFFTVFASELSVYTLTVITLERWYAITFAMRLDRKIRLRHACAIMVGGWVCCFLLALLPLVGISSYAKVSICLPMDTETPLALAYIVFVLTLNIVAFVIVCCCYVKIYITVRNPQYNPGDKDTKIAKRMAVLIFTDFICMAPISFYALSAILNKPLITVSNSKILLVLFYPLNSCANPFLYAIFTKAFQRDVFILLSKFGICKRQAQAYRGQRVPPKNSTDIQVQKVTHEMRQGLHNMEDVYELIENSHLTPKKQGQISEEYMQTVL"
2,no binding,"TSHR Arg255 to Ala, Lys183 to Ala and Tyr185 to Ala (receptor, whole, on cells; as m1) GMGCSSPPCECHQEEDFRVTCKDIQRIPSLPPSTQTLKLIETHLRTIPSHAFSNLPNISRIYVSIDVTLQQLESHSFYNLSKVTHIEIRNTRNLTYIDPDALKELPLLKFLGIFNTGLKMFPDLTKVYSTDIFFILEITDNPYMTSIPVNAFQGLCNETLTLALANNGFTSVQGYAFNGTKLDAVYLNKNKYLTVIDKDAFGGVYSGPSLLDVSQTSVTALPSKGLEHLKELIAANTWTLKKLPLSLSFLHLTRADLSYPSHCCAFKNQKKIRGILESLMCNESSMQSLRQRKSVNALNSPLHQEYEENLGDSIVGYKEKSKFQDTHNNAHYYVFFEEQEDEIIGFGQELKNPQEETLQAFDSHYDYTICGDSEDMVCTPKSDEFNPCEDIMGYKFLRIVVWFVSLLALLGNVFVLLILLTSHYKLNVPRFLMCNLAFADFCMGMYLLLIASVDLYTHSEYYNHAIDWQTGPGCNTAGFFTVFASELSVYTLTVITLERWYAITFAMRLDRKIRLRHACAIMVGGWVCCFLLALLPLVGISSYAKVSICLPMDTETPLALAYIVFVLTLNIVAFVIVCCCYVKIYITVRNPQYNPGDKDTKIAKRMAVLIFTDFICMAPISFYALSAILNKPLITVSNSKILLVLFYPLNSCANPFLYAIFTKAFQRDVFILLSKFGICKRQAQAYRGQRVPPKNSTDIQVQKVTHEMRQGLHNMEDVYELIENSHLTPKKQGQISEEYMQTVL"

# Second part, the binder before the results:
row,Binder,binding result
1,"TSHR Asp232 to Ala, Arg255 to Ala and Trp258 to Ala (receptor, whole, on cells; as m1) GMGCSSPPCECHQEEDFRVTCKDIQRIPSLPPSTQTLKLIETHLRTIPSHAFSNLPNISRIYVSIDVTLQQLESHSFYNLSKVTHIEIRNTRNLTYIDPDALKELPLLKFLGIFNTGLKMFPDLTKVYSTDIFFILEITDNPYMTSIPVNAFQGLCNETLTLKLYNNGFTSVQGYAFNGTKLDAVYLNKNKYLTVIDKDAFGGVYSGPSLLAVSQTSVTALPSKGLEHLKELIAANTATLKKLPLSLSFLHLTRADLSYPSHCCAFKNQKKIRGILESLMCNESSMQSLRQRKSVNALNSPLHQEYEENLGDSIVGYKEKSKFQDTHNNAHYYVFFEEQEDEIIGFGQELKNPQEETLQAFDSHYDYTICGDSEDMVCTPKSDEFNPCEDIMGYKFLRIVVWFVSLLALLGNVFVLLILLTSHYKLNVPRFLMCNLAFADFCMGMYLLLIASVDLYTHSEYYNHAIDWQTGPGCNTAGFFTVFASELSVYTLTVITLERWYAITFAMRLDRKIRLRHACAIMVGGWVCCFLLALLPLVGISSYAKVSICLPMDTETPLALAYIVFVLTLNIVAFVIVCCCYVKIYITVRNPQYNPGDKDTKIAKRMAVLIFTDFICMAPISFYALSAILNKPLITVSNSKILLVLFYPLNSCANPFLYAIFTKAFQRDVFILLSKFGICKRQAQAYRGQRVPPKNSTDIQVQKVTHEMRQGLHNMEDVYELIENSHLTPKKQGQISEEYMQTVL",no binding
2,"TSHR Arg255 to Ala, Trp258 to Ala, Tyr185 to Ala and Lys183 to Ala (receptor, whole, on cells; as m1) GMGCSSPPCECHQEEDFRVTCKDIQRIPSLPPSTQTLKLIETHLRTIPSHAFSNLPNISRIYVSIDVTLQQLESHSFYNLSKVTHIEIRNTRNLTYIDPDALKELPLLKFLGIFNTGLKMFPDLTKVYSTDIFFILEITDNPYMTSIPVNAFQGLCNETLTLALANNGFTSVQGYAFNGTKLDAVYLNKNKYLTVIDKDAFGGVYSGPSLLDVSQTSVTALPSKGLEHLKELIAANTATLKKLPLSLSFLHLTRADLSYPSHCCAFKNQKKIRGILESLMCNESSMQSLRQRKSVNALNSPLHQEYEENLGDSIVGYKEKSKFQDTHNNAHYYVFFEEQEDEIIGFGQELKNPQEETLQAFDSHYDYTICGDSEDMVCTPKSDEFNPCEDIMGYKFLRIVVWFVSLLALLGNVFVLLILLTSHYKLNVPRFLMCNLAFADFCMGMYLLLIASVDLYTHSEYYNHAIDWQTGPGCNTAGFFTVFASELSVYTLTVITLERWYAITFAMRLDRKIRLRHACAIMVGGWVCCFLLALLPLVGISSYAKVSICLPMDTETPLALAYIVFVLTLNIVAFVIVCCCYVKIYITVRNPQYNPGDKDTKIAKRMAVLIFTDFICMAPISFYALSAILNKPLITVSNSKILLVLFYPLNSCANPFLYAIFTKAFQRDVFILLSKFGICKRQAQAYRGQRVPPKNSTDIQVQKVTHEMRQGLHNMEDVYELIENSHLTPKKQGQISEEYMQTVL",no binding
3,"TSHR Trp258 to Ala, Lys183 to Ala and Tyr185 to Ala (receptor, whole, on cells; as m1) GMGCSSPPCECHQEEDFRVTCKDIQRIPSLPPSTQTLKLIETHLRTIPSHAFSNLPNISRIYVSIDVTLQQLESHSFYNLSKVTHIEIRNTRNLTYIDPDALKELPLLKFLGIFNTGLKMFPDLTKVYSTDIFFILEITDNPYMTSIPVNAFQGLCNETLTLALANNGFTSVQGYAFNGTKLDAVYLNKNKYLTVIDKDAFGGVYSGPSLLDVSQTSVTALPSKGLEHLKELIARNTATLKKLPLSLSFLHLTRADLSYPSHCCAFKNQKKIRGILESLMCNESSMQSLRQRKSVNALNSPLHQEYEENLGDSIVGYKEKSKFQDTHNNAHYYVFFEEQEDEIIGFGQELKNPQEETLQAFDSHYDYTICGDSEDMVCTPKSDEFNPCEDIMGYKFLRIVVWFVSLLALLGNVFVLLILLTSHYKLNVPRFLMCNLAFADFCMGMYLLLIASVDLYTHSEYYNHAIDWQTGPGCNTAGFFTVFASELSVYTLTVITLERWYAITFAMRLDRKIRLRHACAIMVGGWVCCFLLALLPLVGISSYAKVSICLPMDTETPLALAYIVFVLTLNIVAFVIVCCCYVKIYITVRNPQYNPGDKDTKIAKRMAVLIFTDFICMAPISFYALSAILNKPLITVSNSKILLVLFYPLNSCANPFLYAIFTKAFQRDVFILLSKFGICKRQAQAYRGQRVPPKNSTDIQVQKVTHEMRQGLHNMEDVYELIENSHLTPKKQGQISEEYMQTVL",no binding
